Reference: the DeepSol protein solubility set

Experiment: soluble on expression in E. coli; label from the status in PepcDB or PDB records

Sequence | soluble on expression in E. coli
MSKEDFVIKPEAAGASTDTSEWPLLLKNFDKLLVRSGHYTPIPAGSSPLKRDLKSYISSGVINLDKPSNPSSHEVVAWIKRILRCEKTGHSGTLDPKVTGCLIVCIDRATRLVKSQQGAGKEYVCIVRLHDALKDEKDLGRSLENLTGALFQRPPLISAVKRQLRVRTIYESNLIEFDNKRNLGVFWASCEAGTYMRTLCVHLGMLLGVGGHMQELRRVRSGALSENDNMVTLHDVMDAQWVYDNTRDESYLRSIIQPLETLLVGYKRIVVKDSAVNAVCYGAKLMIPGLLRYEEGIELYDEIVLITTKGEAIAVAIAQMSTVDLASCDHGVVASVKRCIMERDLYPRRWGLGPVAQKKKQMKADGKLDKYGRVNENTPEQWKKEYVPLDNAEQSTSSSQETKETEEEPKKAKEDSLIKEVETEKEEVKEDDSKKEKKEKKDKKEKKEKKEKKDKKEKKEKKEKKRKSEDGDSEEKKSKKSKK | not soluble
MGSDKIHHHHHHMATLETLDLSAGFAADLVQATEADAVTGYRRFHLGAFAFQRDEYFVKISWPAKGSTRTHAIPADAFLRAMMRDVAWGFFYGWVNFDHVFGTRNHYGKVDVYAGTFNGILKEAGVDYTETFETPTIMATFKAMLHDWTNEGFDPFAAPEETGTAFGRKHGENGAAIERTRIATRRMPGLEGDSPLRDELPVNRAFRDVGQDEPEVHVKPGFEGELHAFNLFKYLSRSDVTWNPSVTSVCGRSLFCPTTEEFILPVFHGNDRVEWFLQLSDEIVWDIGDKNTGAPRARITMRAGDICAMPADIRHQGYSTKRSMLLVWENATPDLPQRYESGELAPYPIAF | not soluble
MAHHHHHHMRHCHMSFAYCFCPFSAHRSASSQGYTRLMRRLSGSTCLLTGVTRAGRWLPTTAPCLSLCSFFLTASRRKQSTSGIGGDVRDIEETHPDFQPRLVSADLAEDEIAMVKKDIDDTIKSEDVVTFIKGLPEAPMCAYSKRMIDVLEALGLEYTSFDVLAHPVVRSYVKEVSEWPTIPQLFIKAEFVGGLDIVTKMLESGDLKKMLRDKGITCRDL | not soluble
MHESVTANIENVKKVAHHIQKLTSIVPEIGIICGSGLGKLADGVKDKITIPYTKIPNFPQTSVVGHSGNLIFGTLSGRKVVVMQGRFHMYEGYSNDTVALPIRVMKLLGVKILMVSNAAGGLNRSLKLGDFVILKDHIYLPGLGLNNILVGPNQEAFGTRFPALSNAYDRDLRKLAVQVAEENGFGNLVHQGVYVMNGGPCYETPAECTMLLNMGCDVVGMSTIPEVVIARHCGIQVFAVSLVTNISVLDVESDLKPNHEEVLATGAQRAELMQSWFEKIIEKLPKD | soluble
REIGENTYIVEGSMTLNDFNEHFDTELESDDVDTIAGYYLTGVGAIPTQEVKEHYEVINKDKRLEFINDKVKDGRVTKLKVIITAAPEEAGE | not soluble
MFVDKNGVNMEKKLVKQQLLTGERALFASKDLRIEDSIFDDGESPLKESSNIELVNSSFKWKYPLWYCNNVNVKDCYFFEMGRAGVWYTNDINVEDTIIEAPKNFRRCNRLGLKNVEFVNAEETLWSCDNVTMTNVVAKGNYFAMNSNDMKIDGLKLVGNYPFDGSKNLEIRNSRLMSKDAFWNAENITVYDSYISGEYLGWNSKNLTFINCTIESLQGLCYIDNLVMKNCKLINTTLAFEYSTVDADITSRVDSVLNPTSGTITADSIDKLIIEKDKVDPSLTKIVCRN | not soluble
MGHHHHHHSHMRGCGSRRLCGSWRGCWSWSGKPSTSSRPSPTAALRSWNNENKSALQLERQVKELKLGEPGSYQPAETAAKAQLSLMALPGEGYGGGHLDNEEEAPRPMLNIPGDLESREAMVAFFNSAGASAQEEQSVCCQPLAHPVASSQKKPEAAAPAPETGGESVCGDTHWALQEAMEKLQQLYGRRRWT | not soluble
MKQTQRHDAIIELVKKQGYVSTEELVEHFSVSPQTIRRDLNDLAEQNMILRHHGGAALPSSSVNTPWHDRKATQTEEKERIARKVAAQIPNGSTLFIDIGTTPEAVAHALLGHSNLRIVTNNLNVANTLMAKEDFRIILAGGELRSRDGGIIGEATQDFIAQFRLDFGILGISGIDSDGSLLEFDYHEVRTKRAIIENSRHVMLVVDHSKFGRNAMVNMGSISMVDAVYTDTLPPPGVMQVLTENHIQLELCLEHHHHHH | soluble
MTKPLVIFGSGDIAQLAHYYFTRDSEYEVVAFTVDRDYASVSEFCGLPLVAFDEVAQRFPPESHAMFVALAYAKLNGVRKEKYLAAKALGYELASYVSSHATVLNDGRIGENVFLLEDNTIQPFVSIGNNVTLWSGNHIGHHSTIHDHCFLASHIVVSGGVVIEEQSFIGVNATLRDHITIGSRCVVGAGALEHHHHHH | not soluble
MRPEDEALIVACIPSLRRYARGLTGERDRADDLVQDTLERAWSRFSRWQRRGELRAWMFGIMHNQFIDGLRAQKRQADYGAETEIPELPVRATQADRLEVRDLDRHLQRLPADLRAVLLLVAVEEFTYREAAQVLEVPIGTVMSRLSRARERLAALLQVQAEAPAASTVQRIRAT | not soluble
MPMINALGLLEVDGMVAAIDAADAMLKAANVRLLSHEVLDPGRLTLVVEGDLAACRAALDAGCAAAMRTGRVISRKEIGRPDDDTQWLVTGFNRQPKQPVREPDAPVIVAESADELLALLTSVRQGMTAGEVAAHFGWPLEKARNALEQLFSAGTLRKRSSRYRLKPH | not soluble
MSLDIMITHKKIYSSLLNTKSRLNFKDTVQSGQSFRWNLNETLKSYYSSVIYNSIIFICEINSEMIEVLCTDQELSGKPINEFLKHLFSLDFQEETVFSSRFQQEFPEVWNLVQSYRSVRVMRQDPFEIMVTFMCAQGIGMHLIRRQVSMIAERYGQKIMLELPEGNLTFHSFPPPQALASADPNELAVCTNNNRIRAANIIAMARSFESGKLALACVDSGKCDLETLRETLCVHSGIGLKIADCIALFGLGRFDAFPIDTHVKQYLWEWFGIEEARHSLTEKNYRILQEKARAILGAEYAGYAGHILFHCWRKEVKKMKAEGHHHHHH | soluble
MGSDKIHHHHHHMEESPLSRAPSRGGVNFLNVARTYIPNTKVECHYTLPPGTMPSASDWIGIFKVEAACVRDYHTFVWSSVPESTTDGSPIHTSVQFQASYLPKPGAQLYQFRYVNRQGQVCGQSPPFQFREPRPMDELVTLEEADGGSDILLVVPKATVLQNQLDESQQERNDLMQLKLQLEGQVTELRSRVQELERALATARQEHTELMEQYKGISRSHGEITEERDILSRQQGDHVARILELEDDIQTISEKVLTKEVELDRLRDTVKALTREQEKLLGQLKEVQADKEQSEAELQVAQQENHHLNLDLKEAKSWQEEQSAQAQRLKDKVAQMKDTLGQAQQRVAELEPLKEQLRGAQELAASSQQKATLLGEELASAAAARDRTIAELHRSRLEVAEVNGRLAELGLHLKEEKCQWSKERAGLLQSVEAEKDKILKLSAEILRLEKAVQEERTQNQVFKTELAREKDSSLVQLSESKRELTELRSALRVLQKEKEQLQEEKQELLEYMRKLEARLEKVADEKWNEDATTEDEEAAVGLSCPAALTDSEDESPEDMRLPPYGLCERGDPGSSPAGPREASPLVVISQPAPISPHLSGPAEDSSSDSEAEDEKSVLMAAVQSGGEEANLLLPELGSAFYDMASGFTVGTLSETSTGGPATPTWKECPICKERFPAESDKDALEDHMDGHFFFSTQDPFTFE | not soluble
MSHAVTIEEPQAQPQVSQTRYRERSRAGSHISSNRAYDFLYDPLFIVSSEKDHTQANIQATLIRSRLRKVPRFKTMFSNLIHYPRYSLYWSKSDPVPPFISREWKGHKEKHREALRQLTTTDASFQMPKEVYEDPEVTGKNRYKYFERPFLPFFQQMPFNVVYAVSKAEPYTFPPTSTKHLSIPSKSTVGTQTDYRDADVQTDPYSPEYVVCQDSIPELLTLATLTWGRGLPAGQAEVEMIERAREKRAWEASLPALSDTSQFEKRRKMMNEMERKEWAFREQEIEKLQEIRLEVLKELLRKREENQNEVNMKHLNARWSKLQEGKEAKMAVIYLQKLLRGRVIQNMMFEGKEKRLELIQELRTCHALQEDEKLVKKAEKQVTLALQRQRNLHEHKVSLVENHLAGLEGRALADMFDFLSKELVRLQEERRIHAFVMLAERQRRVREAEESGRRQVEKQRLREEDEIFKEVVKVHHSTISSYLEDIILNTEANTAEEQARAEIEKMAEKINDIAYEMESRRTYLQSEEIVAELVYSFLIPEVQKYFVKEKVRNAQRKHILAAHQIIHSYTESMVQKKLTEGEQDEASNAAMLLEKETQNENNS | not soluble
MGSDKIHHHHHHMNRRDFLKSALITGAALGLPAGMDPLLTVLKAAERPDLAVVRGTPPAAITRAAIDSLGGMKRFVSRGDVVVVKPNIGWDRTPEYAANTNPEVVGAVVRLCFEAGAKQVKVFDRPVNDPRRTYRQSGIAAAASALGASVLFTDSRKFKDMRINGSSLKSWPLYTEVFEADKVINIPIAKTHGTSKLTLGMKNWMGVMGGWRGRIHQRIDESLVDLATFIKPTLTILDAVRILTDNGPQGGNLADVRRLNMVIAGTDAVAVDAFGATLFGMKPAELGFVRIGHQRRLGSMDLAGMNIRRITL | not soluble
YANRESLIKRYTLKVLEQIAWLPEAQSLDEAKVQEALEDASQTIDSYLGGRYVLPLKTVPAVLERHCCYIARYFLEKNRATDQARQDYEDTIRFLEKVASGAISLGLSDDDETVESENGAMMESAGSVWGRNT | not soluble
MSLGDRMKIVMVTHGGEGDAFWDRVRKGAEAAAAKDGVDLTYAGDADTADQADLVRDAIRDKADGIAVTLAKPQAMKAPVAEAKAAGIPVVGLNSGIDAWRSTGLLEYFGQDESVAGRAVGDKLDDLRAKHALCVIHERGNVALEARCAGVKKTFGGETEMLYVEGTDMKAVGAAVTARLRQDPSIDEVVMNGAAFALTAVEAVDEAGSDAHVATFDLDNDLVAAVKRGDVQFAVDQQPYLQGYLAVDALWLYRTNGNVSGGGVAPVLTGPAFVTREGHHHHHH | soluble
MEEIMLFPLSSVVLPEGKMKLRIFEPRYQRMVAQCSKTGSGFGLCLFDSKSNKNANELSEFGTLVKIVDFETLSDGLLGITVVGIRRFAIRKVRVEYDGLRIATVQWFPDWPSQELLERERFLGEQLQEVYRQFPQIGELHSLCFFDDASWVCQRWLELLPLSKGQFDVLVGQRDCHAALAFLQRTIESHLDT | not soluble
MPHSCSGNYNSCAYIYGVHICKVLLILRAQNVYRNGGFMGEQLIISISREYGSGGHEIARKLADRLELAFYDRCMLDEIAEQMNADVSDFHKYDEKPGNRLLSRRVGNHTNSYEEIIAQFQFDYIRKKAESGESFVVVGRCSENVLKDYDCLISVFVTGDKEHKIQRVMEHFDLSESEAYTKMRRHDRTRKQYHNRYSEGKWGDATYYDMCINSSPLGIEKTVNVLENYVKERTGNQEL | not soluble
MVMTVRVIAPDKTVWDAPAEEVILPSTTGQLGILSNHAPLLTALETGVMRVRQDREWVAIALMGGFAEVENNEVTILVNGAERGDTIDLEKAKAEFAAAQAALAQAEQGESKQAKIQATQAFRRARARLQAAGGVVEI | soluble
MGSDKIHHHHHHMVTHWLPDLSTAEGPLYIRIADRAEADIKTGRLSSGAKLPPQRDLAFDLKVTIGTITRAYALLRERGLVTGEVGRGTYVQSSLAESETDIHRDPVTLTYGGTRTLSPPPGKLRFDTTAAIDVGQADIIGRLMTDIARDQPDEIASYTRTLLPDWLEAGRRWLSNGDWSPEAANIVPQMGVHAGVNAVIAAISGTGDRIVCEHLTYSQIARSASLMGRQIALVDSDHDGIMPEDFERVCAREHPKAAFIMSSGQNPTLSCLPLSRRLEIIDIARRYNVWLIEDYIYGALVDDGIPLLAQLAPDRTFLLNSLSKSVAAGVRGGWVACPDHMSQRVRVTQKMVCGGLPFLLAELSARLVLSGAADDIRGRVLEELSAREQIVRQLFEGYEFRSHPRLPYFWLKLPEPWLSGTFKQAALDQGVLIDDEDEFKPARSSRVFHHIRAGFSEGRDRSIAEGGLITLRRILDQIPVGSNAVM | not soluble
